Source: article PMC11168923 (Nature, 2024)

T1: FLVCR1 (FLVCR1a) (Homo sapiens, UniProt Q9Y5Y0)
T1 construct: full length; transport: pcDNA3.1 in HEK293 with CHKA or ETNK1; structures and fluorescence: C-terminal FLAG tag, Flp-In T-REx293, LMNG
T1 sequence (Q9Y5Y0 1-555): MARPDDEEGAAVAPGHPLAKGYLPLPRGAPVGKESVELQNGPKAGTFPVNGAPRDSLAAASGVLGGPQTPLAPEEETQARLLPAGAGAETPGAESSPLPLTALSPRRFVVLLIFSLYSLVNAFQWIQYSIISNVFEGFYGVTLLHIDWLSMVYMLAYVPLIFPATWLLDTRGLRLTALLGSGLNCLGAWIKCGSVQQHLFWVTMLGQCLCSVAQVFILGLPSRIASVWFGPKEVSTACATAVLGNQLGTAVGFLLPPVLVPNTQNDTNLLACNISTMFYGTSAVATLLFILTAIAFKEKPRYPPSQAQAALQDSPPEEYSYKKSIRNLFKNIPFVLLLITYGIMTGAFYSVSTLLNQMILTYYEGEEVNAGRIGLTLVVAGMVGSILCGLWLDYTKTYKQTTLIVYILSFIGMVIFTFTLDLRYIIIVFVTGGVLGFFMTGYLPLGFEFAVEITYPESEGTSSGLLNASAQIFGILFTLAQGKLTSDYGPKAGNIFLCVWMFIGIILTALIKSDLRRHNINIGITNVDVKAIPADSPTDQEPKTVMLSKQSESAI

T2: FLVCR2 (Homo sapiens, UniProt Q9UPI3)
T2 construct: full length; transport: pcDNA3.1 in HEK293 with CHKA or ETNK1; structures and fluorescence: C-terminal FLAG tag, Flp-In T-REx293, LMNG
T2 sequence (Q9UPI3 1-526): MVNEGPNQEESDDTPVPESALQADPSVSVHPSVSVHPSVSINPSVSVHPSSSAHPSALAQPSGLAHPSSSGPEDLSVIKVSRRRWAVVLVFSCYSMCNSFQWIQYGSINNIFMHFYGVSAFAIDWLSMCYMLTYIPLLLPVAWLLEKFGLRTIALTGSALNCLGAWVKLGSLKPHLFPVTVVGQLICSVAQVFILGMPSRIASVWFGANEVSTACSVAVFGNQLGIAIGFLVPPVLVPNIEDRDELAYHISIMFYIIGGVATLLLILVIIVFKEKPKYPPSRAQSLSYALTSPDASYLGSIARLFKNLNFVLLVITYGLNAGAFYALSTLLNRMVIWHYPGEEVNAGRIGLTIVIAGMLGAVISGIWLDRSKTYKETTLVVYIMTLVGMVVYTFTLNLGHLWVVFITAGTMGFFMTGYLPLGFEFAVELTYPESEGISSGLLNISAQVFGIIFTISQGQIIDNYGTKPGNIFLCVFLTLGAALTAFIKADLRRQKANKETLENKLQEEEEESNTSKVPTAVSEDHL

B1: FLVCR1 (FLVCR1a) (Homo sapiens) (protein)
chain: T1 sequence (Q9Y5Y0 1-555)
notes: full length; transport: pcDNA3.1 in HEK293 with CHKA or ETNK1; structures and fluorescence: C-terminal FLAG tag, Flp-In T-REx293, LMNG
B2: FLVCR2 (Homo sapiens) (protein)
chain: T2 sequence (Q9UPI3 1-526)
notes: as for B1

Legend:
FLVCR1 (FLVCR1a) = molecular target: T1, FLVCR1 (FLVCR1a); test: intrinsic tryptophan fluorescence shift (F350/F330); assay type: binding; conditions: 0.5 µM protein; LMNG; pH 7.4; room temperature
FLVCR2 = molecular target: T2, FLVCR2; test: as above; assay type: binding; conditions: 0.5 µM protein; LMNG; pH 7.4; room temperature
[1] = substrate: NCCO; test: radioligand uptake dose curve in HEK293 cells; assay type: cell-based, Homo sapiens; conditions: ETNK1 co-expressed, DMEM, 37 °C, 1 h, labelled compound
[2] = substrate: C[N+](C)(C)CCO; test: radioligand uptake dose curve in HEK293 cells; assay type: cell-based, Homo sapiens; conditions: CHKA co-expressed, DMEM, 37 °C, 1 h, labelled compound

| Molecule | shift of F350/F330 (FLVCR1 (FLVCR1a)) | shift of F350/F330 (FLVCR2) | Km [1] [µM] | Km [2] [µM] |
| --- | --- | --- | --- | --- |
| C[N+](C)(C)CCO [choline] | Shifts of tryptophan fluorescence of FLVCR1 and FLVCR2 in the presence of choline or betaine | Shifts of tryptophan fluorescence of FLVCR1 and FLVCR2 in the presence of choline or betaine |  |  |
| B1 |  |  | 8 ± 1.5 | 47.4 ± 9.8 |
| B2 |  |  | 41.5 ± 32.0 | 64.0 ± 21.0 |
